These results are taken from patent US20240376222A1 (University of Texas, published 2024).

The target of assay [1] is T1, muTfR extracellular domain (ECD), His-tagged (mouse, UniProt Q62351 89-763).
T1 construct: extracellular domain; Bought protein (Sino Biological); also called muTfR-His; muTfR ECD
Briefly: BLI (Octet), IgG on Protein A sensor, muTfR-ECD-His in solution, 1:1 global fit. The source says: FIG. 3. Illustrates the Kinetics and binding affinities of murine transferrin receptor (TfR) antibodies and represents the kinetic binding graphs determined using BLI method with Octet 96-Red instrument. Protein A sensors (Fortebio) were used to capture anti-TfR IgG. Individual purified TfR antibodies were loaded onto Protein A sensors and subject to a solution flow containing muTfR-ECD-His at designated concentrations: (indicated by the colored lines under each graphs) and for a defined time (shown in X-axis). After binding, the sensors were incubated in blank kinetics buffer to allow free dissociation of TfR for designated time.
FIG. 4: Illustrates the binding kinetics parameters were calculated by the software from Fortebio (version 11) using 1:1 binding model with global fitting. KD is calculated by kdis/kon as determined from the FIG. 3 data.
On the technique in general: Biolayer interferometry detects binding as a change in optical thickness at a sensor tip.

Assay [2] has as its target T2, cynomolgus TfR extracellular domain (ECD) (cynomolgus).
T2 chain: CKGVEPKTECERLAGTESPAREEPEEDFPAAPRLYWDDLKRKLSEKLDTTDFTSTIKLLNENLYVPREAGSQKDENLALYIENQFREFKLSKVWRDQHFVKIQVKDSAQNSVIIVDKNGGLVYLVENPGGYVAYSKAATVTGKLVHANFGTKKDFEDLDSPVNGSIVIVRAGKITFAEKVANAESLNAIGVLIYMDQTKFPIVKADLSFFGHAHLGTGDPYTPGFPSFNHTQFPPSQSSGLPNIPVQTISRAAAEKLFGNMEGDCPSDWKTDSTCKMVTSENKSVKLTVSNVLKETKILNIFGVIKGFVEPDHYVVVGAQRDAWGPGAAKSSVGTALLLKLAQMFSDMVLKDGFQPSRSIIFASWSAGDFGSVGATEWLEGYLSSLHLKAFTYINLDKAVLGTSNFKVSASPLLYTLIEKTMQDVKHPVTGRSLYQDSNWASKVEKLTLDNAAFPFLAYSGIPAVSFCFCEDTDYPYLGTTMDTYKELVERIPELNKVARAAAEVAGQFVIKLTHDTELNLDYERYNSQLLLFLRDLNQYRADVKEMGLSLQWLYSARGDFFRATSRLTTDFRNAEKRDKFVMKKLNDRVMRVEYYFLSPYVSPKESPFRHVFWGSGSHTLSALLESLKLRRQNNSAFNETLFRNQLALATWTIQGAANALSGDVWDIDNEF
Briefly: Octet BLI, serial dilution of antigen.

For assay [3], the target named is T3, human TfR extracellular domain (ECD) (human, UniProt P02786 89-760).
T3 construct: extracellular domain; Bought protein; also called HuTfR; huTfR
Description: Octet BLI, serial dilution of antigen.

The target of assay [4] is T3, human TfR extracellular domain (ECD). Description: phage ELISA, scFv phage on coated TfR, anti-M13-HRP, single point. On the technique in general: ELISA stands for enzyme-linked immunosorbent assay.
Assay [5] has the same target. Description: BLI (Octet), IgG on Protein A sensor, huTfR-ECD-His in solution, 1:1 global fit. As for the experimental part:
FIG. 1. Illustrates the Kinetics and binding affinities of human transferrin receptor (TfR) antibodies and represents the kinetic binding graphs determined using BLI method with Octet 96-Red instrument. Protein A sensors (Fortebio) were used to capture anti-TfR IgG. During all incubation steps, sample temperature was set to room temperature with 1000 rpm shaking. Individual purified TfR antibodies were loaded onto sensors. After antibody capture, the antibody-loaded sensors were subject to a solution flow containing huTfR-ECD-His at designated concentrations: (indicated by the colored lines under each graphs) and for a defined time (shown in X-axis). After binding, the sensors were incubated in blank kinetics buffer to allow free dissociation of TfR for designated time. The binding kinetics parameters were calculated by the software from Fortebio (version 11) using 1:1 binding model with global fitting.

Assay [6] has the same target. Briefly: phage ELISA, scFv phage on coated TfR, anti-M13-HRP, single point. This is another data set of the same source.

Where two headings read alike, the source gives them in different places.

T1 sequence (Q62351 89-763): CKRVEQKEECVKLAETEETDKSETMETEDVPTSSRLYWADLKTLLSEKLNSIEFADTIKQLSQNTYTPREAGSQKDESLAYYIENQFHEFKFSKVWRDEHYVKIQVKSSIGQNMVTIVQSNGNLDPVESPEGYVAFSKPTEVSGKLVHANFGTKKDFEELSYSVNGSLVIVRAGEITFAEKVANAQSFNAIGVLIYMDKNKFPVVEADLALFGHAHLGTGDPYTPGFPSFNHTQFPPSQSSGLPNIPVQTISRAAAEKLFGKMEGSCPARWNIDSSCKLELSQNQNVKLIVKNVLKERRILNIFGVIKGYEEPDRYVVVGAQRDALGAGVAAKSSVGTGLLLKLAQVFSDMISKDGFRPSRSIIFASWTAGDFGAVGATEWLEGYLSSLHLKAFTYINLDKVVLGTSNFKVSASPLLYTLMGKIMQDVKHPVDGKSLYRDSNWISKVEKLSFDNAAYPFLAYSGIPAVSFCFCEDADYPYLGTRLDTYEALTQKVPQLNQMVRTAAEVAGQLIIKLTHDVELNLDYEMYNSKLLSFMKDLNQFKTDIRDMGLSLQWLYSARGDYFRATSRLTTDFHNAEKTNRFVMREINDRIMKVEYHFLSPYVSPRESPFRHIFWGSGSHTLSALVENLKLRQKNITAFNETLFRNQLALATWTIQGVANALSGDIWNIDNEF

B1: Ab42 (antibody, V domains shown)
VH: QVQLVQSGAEVKKPGSSVKVSCKASGGTFSSYAISWVRQAPGQGLEWMGGIIPIFGTANYAQKFQGRVTITADESTSTAYMELSSLRSEDTAVYYCARGATRGMDVWGQGTLVTVSS
VL: DIVMTQSPSSLSASVGDRVTITCRASQSISNFLNWYQQKPGKAPKLLIYAASSLQSGVPSRFSGSRSGTDFTLTISSLQPEDFATYYCQQSSSIPLTFGGGTKLEIK
For the molecule B1, in assay [1], binding was put at a Kd of 2.09 nM, the koff was 0.00013 s⁻¹ and the kon was 62000 M⁻¹ s⁻¹.

B2: Ab2 (antibody, V domains shown)
VH: QVQLVQSGAEVKKPGSSVKVSCKASGGTFSSYAISWVRQAPGQGLEWMGGIIPIFGTANYAQKFQGRVTITADESTSTAYMELSSLRSEDTAVYYCARFAFFSLASEDYWGQGTLVIVSS
VL: not shown
As for B2, in assay [1], the Kd amounted to 8.37 nM, the koff turned out to be 0.000145 s⁻¹ and the kon amounted to 17300 M⁻¹ s⁻¹.

B3: 4G1 (antibody, V domains shown)
VH: EVQLLESGGGLIQPGGSLRLSCAASGFSVSSYYMNWVRQAPGKGLEWVSNTYTDGSTSYADSVGGRFSVSRDNSKNTLHLQMNSLRVEDTAVYYCAREGDGYNSGGLDYWGQGTLVTVSS
VL: DIQLTQSPASLSASLGDRVTITCRASQSIGTYLNWYQQRPGQAPKLLIFGTSSLQSGVPSRFSGSGSGTDFTLTISSLQPEDLATYYCQQTYITPRTFGQGTKVEIK
notes: Human IgG1, converted from a phage scFv clone
Consider B3, for which, in assay [2], the Kd is less than 0.001 nM, the koff was less than 1e-07 s⁻¹ and the kon was found to be 94500 M⁻¹ s⁻¹. In assay [3], this molecule displayed a Kd of less than 0.001 nM, a koff of less than 1e-07 s⁻¹ and a kon of 79900 M⁻¹ s⁻¹.

B4: 8A5 (antibody, V domains shown)
VH: QVQLVQSGAEVKKPGESLRISCKGSGYSFTSYWISWVRQMPGKGLEWMGRIDPSDSYTNYSPSFQGHVTISADKSISTAYLQWSSLKASDTAIYYCARARTWFDAFDIWGQGTTVTVSS
VL: QAVVTQPPSASGTPGQRVTISCSGGSSNIGRYSVNWYQQLPGTAPKLLINSNIQRPSGVPDRFSGSKSGTSASLAISGLQSEDEADYHCAAWDDSLKGWVFGGGTKVTVL
notes: as for B3
As for B4, the binding result in assay [4] is given as “binds”.

B5: Ab30 (antibody, V domains shown)
VH: EVQLVQSGGGLAQPGGSLRLSCAASGFTFSIYSMNWVRQAPGKGLEWVSYIGGGGTSIYYADSVKGRFTISRDNAKNSLSLQMNSLRAEDTGVYYCARGKPATGFDYWGQGTLVSVSS
VL: QSVLTQPRSVSGSPGQSVTISCTGTSSDVGGYNYVSWYQQHPGKAPKLMISEVSKRPSGVPDRFSGSKSGNTASLTVSGLQAEDEADYYCSSYAGGYTPYVFGTGTKVTVL
For B5, in assay [5], the Kd is less than 0.001 nM, the koff was less than 1e-07 s⁻¹ and the kon was 119000 M⁻¹ s⁻¹.

B6: 8G5 (antibody, V domains shown)
VH: QVQLVQSGAEVKKPGASVKVSCKASGYTFTSYGISWVRQAPGQGLEWMGWISAYNGNTNYAQKLQGRVTMTTDTSTSTAYMELRSLRSDDTAVYYCARVGYYYYGMDVWGQGTTVTVSS
VL: QSVLTQPPSVSGAPGQRVTISCTGSSSNIGAGFDVHWYQQLPGTAPKLLIYANSNRPSGVPDRFSASKSGTSASLAITGLQAEDEADYYCQSYDRSLSGYVFGSGTKVTVL
notes: as for B3
As to B6, in assay [4], the binding result is recorded as “binds”.

B7: 7A1 (antibody, V domains shown)
VH: QVQLVQSGAEVKKPGSSVKVSCKASGGTFSSYAISWVRQAPGQGLEWMGGIIPIFGTANYAQKFQGRVTITADESTSTAYMELSSLRSEDTAVYYCARSGYYNDAFDIWGQGTMVTVSS
VL: QSALTQPASVSGSPGQSITISCTGTNSDIGGYNYVSWYQQHPGKAPKLMIYEVSNRPSGVSNRFSGSKSGNTASLTISGLQAEDEAHYYCSSYTSSSTLVFGGGTKVTVL
notes: as for B3
For the molecule B7, the binding result in assay [4] is “binds”.

B8: 5B6 (antibody, V domains shown)
VH: PVLLVQSGAEVKKPGSSVKVSCKASGGTFSSYAISWVRQAPGQGLEWMGGIIPIFGTANYAQKFQGRVTITADESTSTAYMELSSLRSEDTAVYYCAVSIFGVVIPLDYWGQGTLVIVSS
VL: QPVLTQSPSVSLAPGQTAKITCGGTNIGRKSVHWYQQKPGQAPVMVIYYDSDRPSGIPERFAGSNSGNTATLTISRVEAGDEAVYYCQVWDSSSASGVFGGGTKVTVL
notes: as for B3
In assay [2], B8 gave a Kd of less than 0.001 nM, a koff of less than 1e-07 s⁻¹ and a kon of 87900 M⁻¹ s⁻¹. Moreover, in assay [3], the Kd amounted to 0.575 nM, the koff came to 2.98e-05 s⁻¹ and the kon was found to be 51800 M⁻¹ s⁻¹.

B9: Ab59 (antibody, V domains shown)
VH: QVQLVESGGGVVQPGRSLRLSCAASGFTFSSYAMHWVRQAPGKGLEWVAVISYDGSNKYYADSVKGRFTISRDNSKNTLYLQMNSLRAEDTAVYYCARGGPYYDFWSDGMDVWGQGTMVTVSS
VL: QSVLTQPHSVSESPGKTVTISCTRSSGSIASNYVQWYQQRPGSSPTTVIYEDNQRPSGVPDRFSGSIDSSSNSASLTISGLKTEDEADYYCQSYDSSNYVFGTGTKVTVL
In assay [1], B9 showed a dissociation constant (Kd) of 2.17 nM, a koff of 0.000162 s⁻¹ and a kon of 74900 M⁻¹ s⁻¹.

B10: 7B10 (antibody, V domains shown)
VH: QVQLVQSGAEVKKPGASVKVSCKASGYTFTSYGISWVRQAPGQGLEWMGWISAYNGNTNYAQKLQGRVTMTTDTSTSTAYMELRSLRSDDTAVYYCARDQKLLHILYYYGMDVWGQGTTVIVSS
VL: DIVMTQSPLSLSVTPGEPASISCRSSQSLLHSNGNNYLDWYLQKPGQSPQLLIYLGSNRASGVPDRFSGSGSGTDFSLKINKVEAEDVGVYYCMQALQTAYTFGQGTKLEIK
notes: as for B3
Regarding B10, the binding result in assay [4] is given as “binds”.

B11: Ab1 (antibody, V domains shown)
VH: QVQLMQSGAEVKKPGSSVKVSCKASGGTFSSYAISWVRQAPGQGLEWMGRIIPILGIANYAQKFQGRVTITADKSTSTAYMELSSLRSEDTAVYYCARDRDTMVRGGMDVWGQGTMVTVSS
VL: QSALNQPPSASGSPGQSVTISCTGTGSDIGGHNYVSWYQQHPGKAPKLMIYDVSKRPSRVPDRFSGSKSGNTASLTVSGLQAEDEADYYCSSYAGSNVVFGAGTKVTVL
In assay [5], B11 had a Kd of 3.46 nM, a koff of 0.000398 s⁻¹ and a kon of 115000 M⁻¹ s⁻¹.

B12: muTfR Ab4 (antibody, V domains shown)
VH: EVQLVESGGGLVKPGGSLRLSCAASGFTFSWYTMNWVRQAPGKGLEWVSSISSSSSDMYYADSVKGRFTISRDNAKNSLYLQIDSLRAEDTAVYYCARAHYYDSTSLNHFYGMDVWGQGTTVTVSS
VL: QSVLTQPPSVSVAPGKTARITCGGNNIGSRTVHWYQQRPGQAPMLVVSDDNDRPSGIPERFSGSNSGNTATLTITRVEAGDEADYYCQVWDSSSDHLVFGGGTQLTVL
modifications: Biotinylated when used as the probe in the competition ELISA; the sites are not stated and the letters do not carry them.
notes: also called anti-muTfR Ab4; biotinylated Ab4
As to B12, in assay [1], the Kd stood at 5.03 nM, the koff stood at 0.000391 s⁻¹ and the kon was determined as 77700 M⁻¹ s⁻¹.

B13: 1B2 (antibody, V domains shown)
VH: QVQLVQSGAEVKKPGESLRISCKGSGYSFTSYWISWVRQMPGKGLEWMGRIDPSDSYTNYSPSFQGHVTISADKSISTAYLQWSSLKASDTAMYYCARHPLAYCGGDCQRGFDYWGQGTLVTVSS
VL: QPVLTQPPSVSVSPGQTARITCSGDKLREDLTSWYQQKPGQSPVLVIYQDSKRPSGIPARFSGSISGSTATLTISGTQAVDEADYYCQAWDNSVDYVFGTGTKVTVL
notes: as for B3
For B13, the binding result in assay [6] was “binds”.

B14: Ab5 (antibody, V domains shown)
VH: QVQLVESGGGLVQPGRSLRLSCAASGFTFDDYAMHWVRQAPGKGLEWVSGISWNSGSIGYADSVKGRFTISRDNAKNSLYLQMNSLRAEDTALYYCAKVSSQSGSVAGFDYWGQGTLVSVSS
VL: QPVLTQPPSASGTPGQRVTISCSGSSSNIGANYVYWYQQLPGTAPKLLIYRNNQRPSGVPDRFSGSKSGTSASLAIGGLRSEDEADYYCAGWDDSLSGVLFGGGTKVTVL
For the molecule B14, in assay [1], the Kd was 2.58 nM, the koff turned out to be 0.000135 s⁻¹ and the kon was determined as 52300 M⁻¹ s⁻¹.

The term Kd denotes the concentration at which binding is half-saturated. A lower Kd goes with tighter binding. The koff is the first-order rate constant of dissociation. Lower therefore signals a long-lived complex. As usually defined, the kon is the second-order rate constant of association. A high value points to faster complex formation.
